From patent US20090004190A1, “Rage Fusion Proteins And Methods Of Use” (priority 2006, published 2009)

Key:
[1] = Pharmacokinetic profile of TTP-4000 after IV injection (plasma ELISA); assay type: in vivo; settings: monkeys, single IV bolus 5 mg/kg, after ligands saturated, FIG. 11
Method: Blood samples (approximately 1.0 mL) were collected at pre-dose (i.e., prior to injection of the TTP4000), or at 0.083, 0.25, 0.5, 2, 4, 8, 12, 24, 48, 72, 96, 120, 168, 240, 288, and 336 hours post dose into tubes containing (lithium heparin). Following collection, the tubes were placed on wet ice (maximum 30 minutes) until centrifugation under refrigeration (at 2 to 8° C.) at 1500×g for 15 minutes. Each harvested plasma sample was then stored frozen (−70° C.±10° C.) until assayed for RAGE polypeptide using an ELISA at various time-points following the injection, as described in Example 6.
Initially, 50 uL of the RAGE specific monoclonal antibody 1HB1011 at a concentration of 10 ug/mL in 1×PBS pH 7.3 is coated on plates via overnight incubation. When ready for use, plates are washed three times with 300 uL of 1× Imidazole-Tween wash buffer and blocked with 1% BSA. […] The samples are allowed to incubate at room temperature for one hour. After incubation, the plates are plates are washed three times. A Goat Anti-human IgG11 (Sigma A3312) […] conjugate in 1×PBS with 1% BSA is added and allowed to incubate at room temperature for 1 hour. The plates are washed three times. Color was elucidated with paranitrophenylphosphate.

[2] = target: T1, S100b (S100) (Homo sapiens, UniProt P04271); experiment: In vitro ligand binding (ELISA) to immobilized S100b; settings: ligand 5 micrograms per well; FIG. 7
T1 sequence (P04271 1-92): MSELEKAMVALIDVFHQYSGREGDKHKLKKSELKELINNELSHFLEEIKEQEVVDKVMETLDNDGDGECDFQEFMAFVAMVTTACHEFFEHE
Method: (§1) For example, the RAGE fusion protein may be used in a binding assay to identify potential RAGE ligands. In one example embodiment of such a binding assay, a known RAGE ligand may coated onto a solid substrate (e.g., Maxisorb plates) at a concentration of about 5 micrograms per well, where each well contains a total volume of about 100 microliters (μL). The plates may be incubated at 4° C. overnight to allow the ligand to absorb. Alternatively, shorter incubation periods at higher temperature (e.g., room temperature) may be used. […] The RAGE fusion protein bound to the immobilized ligand may be detected in a variety of ways. […] The bound complex may be detected by adding the alkaline phosphatase substrate, para-nitrophenylphosphate (PNPP), and measuring conversion of PNPP to para-nitrophenol (PNP) as an increase in absorbance at 405 nm. […] In the absence of ligand (i.e., coating with only BSA) there was no increase in absorbance. […] Binding was detected by the addition of an immunodetection complex containing a monoclonal mouse anti-human IgG1 diluted 1:11,000 to a final assay concentration (FAC) of 21 ng/100 μL, a biotinylated goat anti-mouse IgG diluted 1:500, to a FAC of […], and an avidin-linked alkaline phosphatase. […]

[3] = target: T2, amphoterin (Ampho) (Homo sapiens, UniProt P09429); experiment: In vitro ligand binding (ELISA) to immobilized amphoterin; settings: ligand 5 micrograms per well; FIG. 7
T2 sequence (P09429 1-215): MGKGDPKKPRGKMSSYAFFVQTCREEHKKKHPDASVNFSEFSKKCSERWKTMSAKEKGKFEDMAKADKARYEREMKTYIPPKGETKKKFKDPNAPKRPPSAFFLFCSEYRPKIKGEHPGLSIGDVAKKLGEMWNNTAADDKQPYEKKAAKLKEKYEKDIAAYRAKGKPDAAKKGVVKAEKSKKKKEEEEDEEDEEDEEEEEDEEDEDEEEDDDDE
Method: as §1

B1: TTP-4000: four domain RAGE fusion protein: human RAGE V and C1 domains with interdomain linkers (to residue 251) fused to human IgG1 CH2 and CH3; SEQ ID NO: 34/56 (protein, listed as Homo sapiens)
chain: QNITARIGEPLVLKCKGAPKKPPQRLEWKLNTGRTEAWKVLSPQGGGPWDSVARVLPNGSLFLPAVGIQDEGIFRCQAMNRNGKETKSNYRVRVYQIPGKPEIVDSASELTAGVPNKVGTCVSEGSYPAGTLSWHLDGKPLVPNEKGVSVKEQTRRHPETGLFTLQSELMVTPARGGDPRPTFSCSFSPGLPRHRALRTAPIQPRVWEPVPLEEVQLVVEPEGGAVAPPSVFLFPPKPKDTLMISRTPEVTCVVVDVSHEDPEVKFNWYVDGVEVHNAKTKPREEQYNSTYRVVSVLTVLHQDWLNGKEYKCKVSNKALPAPIEKTISKAKGQPREPQVYTLPPSRDELTKNQVSLTCLVKGFYPSDIAVEWESNGQPENNYKTTPPVLDSDGSFFLYSKLTVDKSRWQQGNVFSCSVMHEALHNHYTQKSLSLSPGK
[1]
  terminal half-life: greater than 300 hours
[2]
  binding to immobilized S100b (absorbance at 405 nm): specifically interact
[3]
  binding to immobilized amphoterin (absorbance at 405 nm): specifically interact
